Reference: US20130064834A1 (published 2013)

B1: H1H316P (antibody, V domains shown)
VH: EVQLVESGGGLVQPGGSLRLSCAASGFTFNNYAMNWVRQAPGKGLDWVSTISGSGGTTNYADSVKGRFIISRDSSKHTLYLQMNSLRAEDTAVYYCAKDSNWGNFDLWGRGTLVTVSS
VL: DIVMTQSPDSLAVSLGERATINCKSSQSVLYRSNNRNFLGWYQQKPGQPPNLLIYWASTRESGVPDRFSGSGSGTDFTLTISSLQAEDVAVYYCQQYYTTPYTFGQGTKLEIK
notes: Fully human mAb made in CHO cells; also called mAb316P
B2: H1M300N (antibody, V domains shown)
VH: EMQLVESGGGLVQPGGSLRLSCAASGFTFSSHWMKWVRQAPGKGLEWVANINQDGSEKYYVDSVKGRFTISRDNAKNSLFLQMNSLRAEDTAVYYCARDIVLMVYDMDYYYYGMDVWGQGTTVTVSS
VL: not shown
notes: Fully human version made in CHO cells

Key:
[1] = molecular target: T1, tagged rhesus monkey (Macaca mulata) PCSK9 (rhesus monkey (Macaca mulata), UniProt A8T666 31-692); test: competition ELISA vs EGF-A, pH 7.2
T1 construct: also called mmPCSK9-mmh; mmPCSK9
T1 sequence (A8T666 31-692 limits assumed): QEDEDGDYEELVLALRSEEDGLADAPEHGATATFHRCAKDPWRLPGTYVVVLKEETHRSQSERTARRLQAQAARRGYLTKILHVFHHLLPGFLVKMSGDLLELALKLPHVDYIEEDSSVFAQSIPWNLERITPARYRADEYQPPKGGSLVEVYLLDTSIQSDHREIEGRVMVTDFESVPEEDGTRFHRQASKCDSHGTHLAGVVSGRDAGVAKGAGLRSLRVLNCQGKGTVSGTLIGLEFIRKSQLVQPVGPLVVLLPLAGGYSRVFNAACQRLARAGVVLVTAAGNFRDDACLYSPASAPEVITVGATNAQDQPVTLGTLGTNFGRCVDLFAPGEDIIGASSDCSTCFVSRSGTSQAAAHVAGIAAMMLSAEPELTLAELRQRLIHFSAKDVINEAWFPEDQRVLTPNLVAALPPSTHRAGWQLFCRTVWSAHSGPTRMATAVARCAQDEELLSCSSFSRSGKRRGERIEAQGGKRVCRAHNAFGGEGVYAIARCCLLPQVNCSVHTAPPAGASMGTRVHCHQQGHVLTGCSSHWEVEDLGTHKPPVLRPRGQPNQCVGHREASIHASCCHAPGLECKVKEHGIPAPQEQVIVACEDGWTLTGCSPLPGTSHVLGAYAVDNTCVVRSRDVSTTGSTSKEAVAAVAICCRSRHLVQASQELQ
Procedure: (§1) Briefly, hLDLR-ecto, hLDLR EGF-A-hFc or hLDLR EGF-AB-hFc, each at 2 μg/ml, was coated on a 96-well plate in PBS buffer overnight at 4° C., and nonspecific binding sites blocked with BSA. […] The equilibrated sample solutions were transferred to receptor or receptor fragment coated plates.

[2] = molecular target: T2, rat (Rattus norvegicus) PCSK9, myc-myc-his tagged (rat (Rattus norvegicus), UniProt P59996 31-691); test: competition ELISA vs EGF-A, pH 7.2
T2 construct: also called rPCSK9-mmh; rPCSK9
T2 sequence (P59996 31-691 limits assumed): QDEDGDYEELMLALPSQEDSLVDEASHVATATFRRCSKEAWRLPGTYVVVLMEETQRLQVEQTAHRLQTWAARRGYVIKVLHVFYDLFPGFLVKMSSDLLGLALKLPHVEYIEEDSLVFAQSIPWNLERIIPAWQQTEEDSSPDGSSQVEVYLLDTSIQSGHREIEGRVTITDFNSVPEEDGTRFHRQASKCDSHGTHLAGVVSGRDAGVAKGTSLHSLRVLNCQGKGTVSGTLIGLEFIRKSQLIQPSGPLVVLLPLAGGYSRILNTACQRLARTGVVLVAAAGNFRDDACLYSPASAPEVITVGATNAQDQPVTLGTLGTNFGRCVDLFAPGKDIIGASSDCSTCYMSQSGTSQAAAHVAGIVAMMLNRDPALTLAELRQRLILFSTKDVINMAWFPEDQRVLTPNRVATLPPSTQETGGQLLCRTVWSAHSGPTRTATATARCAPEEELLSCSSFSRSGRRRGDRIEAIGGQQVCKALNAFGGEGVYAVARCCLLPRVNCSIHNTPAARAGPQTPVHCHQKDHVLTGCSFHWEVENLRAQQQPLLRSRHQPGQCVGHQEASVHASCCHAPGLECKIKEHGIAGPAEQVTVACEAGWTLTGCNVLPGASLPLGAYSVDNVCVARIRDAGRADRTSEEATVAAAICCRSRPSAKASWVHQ
Procedure: as §1

[3] = molecular target: T3, mouse PCSK9, myc-myc-his tagged (mouse, UniProt Q80W65 35-694); test: competition ELISA vs EGF-A, pH 7.2
T3 construct: also called mPCSK9-mmh; mPCSK9
Procedure: as §1

[4] = molecular target: T4, his-tagged Syrian golden hamster (Mesocricetus auratus) PCSK9 (Syrian golden hamster (Mesocricetus …)); test: competition ELISA vs EGF-A, pH 7.2
T4 construct: also called maPCSK9-h; maPCSK9
T4 chain: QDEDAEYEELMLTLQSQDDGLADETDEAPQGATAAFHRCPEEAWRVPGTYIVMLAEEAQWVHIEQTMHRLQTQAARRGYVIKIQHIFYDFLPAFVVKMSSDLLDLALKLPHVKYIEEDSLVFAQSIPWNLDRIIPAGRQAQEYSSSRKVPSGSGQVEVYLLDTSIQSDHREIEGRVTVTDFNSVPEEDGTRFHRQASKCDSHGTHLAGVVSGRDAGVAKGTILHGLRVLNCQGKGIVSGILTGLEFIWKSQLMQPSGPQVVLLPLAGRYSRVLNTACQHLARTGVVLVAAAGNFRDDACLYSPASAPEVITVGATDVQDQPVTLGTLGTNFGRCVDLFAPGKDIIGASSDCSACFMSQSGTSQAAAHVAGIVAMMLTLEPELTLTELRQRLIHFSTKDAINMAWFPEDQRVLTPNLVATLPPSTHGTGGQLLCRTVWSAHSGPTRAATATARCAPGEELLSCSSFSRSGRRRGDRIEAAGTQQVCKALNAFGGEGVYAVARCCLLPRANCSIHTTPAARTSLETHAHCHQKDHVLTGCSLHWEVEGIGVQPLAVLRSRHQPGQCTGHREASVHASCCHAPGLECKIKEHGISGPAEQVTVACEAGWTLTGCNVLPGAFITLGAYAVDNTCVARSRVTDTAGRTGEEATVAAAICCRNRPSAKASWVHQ
Procedure: as §1

[5] = molecular target: T5, cynomolgus monkey (Macaca fascicularis) PCSK9, myc-myc-his tagged (cynomolgus monkey (Macaca fascicularis), UniProt A8T662 31-692 (Macaca nemestrina entry), limits assumed); test: competition ELISA vs EGF-A, pH 7.2
T5 construct: also called mfPCSK9-mmh; mfPCSK9
T5 sequence (A8T662 31-692 limits assumed): as the sequence (A8T666 31-692 limits assumed) above, with P607A, K639E counted along it
Procedure: as §1

[6] = molecular target: T6, Human PCSK9-myc-myc-his (human, UniProt Q8NBP7 31-692); test: competition ELISA vs EGF-A, pH 7.2
T6 construct: also called hPCSK9-mmh; hPCSK9
Procedure: as §1

[7] = molecular target: T2, rat (Rattus norvegicus) PCSK9, …; test: cell-based or functional assay
[8] = molecular target: T3, mouse PCSK9, myc-myc-his tagged; test: cell-based or functional assay
[9] = molecular target: T4, his-tagged Syrian golden hamster …; test: cell-based or functional assay
[10] = molecular target: T5, cynomolgus monkey (Macaca fascicularis) …; test: cell-based or functional assay
[11] = molecular target: T7, hPCSK9(D374Y)-mmh (human, UniProt Q8NBP7 31-692); test: cell-based or functional assay
[12] = molecular target: T6, Human PCSK9-myc-myc-his; test: cell-based or functional assay
[13] = molecular target: T6, Human PCSK9-myc-myc-his; test: SPR, antigen captured at low density, pH 7.4, 25C
[14] = molecular target: T3, mouse PCSK9, myc-myc-his tagged; test: SPR, mAb captured on anti-hFc, 100 nM antigen
Procedure: (§2) Changes in RU due to the binding of each protein to the mAb surface was determined.

[15] = molecular target: Chimeric protein #2 (hPro-mCat-mC-term-mmh) (human; mouse, UniProt Q80W65 19-694); test: SPR, mAb captured on anti-hFc, 100 nM antigen
Procedure: as §2

[16] = molecular target: T8, Chimeric protein #1 (mPro-hCat-mC-term-mmh) (mouse; human, UniProt Q80W65 35-694); test: SPR, mAb captured on anti-hFc, 100 nM antigen
T8 chain: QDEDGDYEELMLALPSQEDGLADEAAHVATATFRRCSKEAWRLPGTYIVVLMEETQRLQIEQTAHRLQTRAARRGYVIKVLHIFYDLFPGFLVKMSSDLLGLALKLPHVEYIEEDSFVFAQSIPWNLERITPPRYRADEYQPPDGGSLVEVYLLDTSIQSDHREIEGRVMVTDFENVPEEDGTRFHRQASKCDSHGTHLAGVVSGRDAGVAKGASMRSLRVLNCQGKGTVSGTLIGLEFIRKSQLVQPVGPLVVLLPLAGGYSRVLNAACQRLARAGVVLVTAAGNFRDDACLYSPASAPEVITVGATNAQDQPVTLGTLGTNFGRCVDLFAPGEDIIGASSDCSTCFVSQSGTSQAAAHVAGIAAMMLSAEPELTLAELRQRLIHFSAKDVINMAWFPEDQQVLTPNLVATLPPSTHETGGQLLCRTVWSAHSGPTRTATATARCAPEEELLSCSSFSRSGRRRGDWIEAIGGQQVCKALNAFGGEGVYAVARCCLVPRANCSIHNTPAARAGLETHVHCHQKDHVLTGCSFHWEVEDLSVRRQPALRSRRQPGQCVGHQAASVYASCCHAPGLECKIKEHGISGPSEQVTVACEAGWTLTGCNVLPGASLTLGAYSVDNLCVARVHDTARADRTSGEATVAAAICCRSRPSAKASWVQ
Procedure: as §2

[17] = molecular target: T6, Human PCSK9-myc-myc-his; test: SPR, mAb captured on anti-hFc, 100 nM antigen
Procedure: as §2

[18] = molecular target: T7, hPCSK9(D374Y)-mmh; test: competition ELISA vs EGF-A-hFc, pH 5.5
Procedure: as §1

Row | Binder | IC50 [1] [nM] | IC50 [2] [nM] | IC50 [3] [nM] | IC50 [4] [nM] | IC50 [5] [nM] | IC50 [6] [nM] | IC50, LDL uptake in HepG2 cells [7] [nM] | IC50, LDL uptake in HepG2 cells [8] [nM] | IC50, LDL uptake in HepG2 cells [9] [nM] | IC50, LDL uptake in HepG2 cells [10] [nM] | IC50, LDL uptake in HepG2 cells [11] [nM] | IC50, LDL uptake in HepG2 cells [12] [nM] | Kd [13] [nM] | T1/2 [13] [h] | change in RU [14] [RU] | change in RU [15] [RU] | change in RU [16] [RU] | change in RU [17] [RU] | IC50 [18] [nM]
1 | B1 | < 0.25 | 2.66 | 0.305 | 0.349 | 0.075 | < 0.125 | 27.7 | 21.2 | 14.4 | 14.7 | 2.1 | 14.1 | 0.339 | 0.75 | 505 | 451 | 529 | 500 | 1.12
2 | B2 | 0.46 | > 100 | > 100 | > 100 | 0.473 | 0.182 | > 500 | > 500 | > 500 | 13.4 | 11 | 12.6 | 0.31 | 1.98 | 13 | 76 | 243 | 320 | 3.46
